Laboratory results taken from paper PMC10242683, “Catalytic Cycle of the Bifunctional Enzyme Phosphoribosyl-ATP Pyrophosphohydrolase/Phosphoribosyl-AMP Cyclohydrolase” (ACS Catalysis, 2023).

T1: phosphoribosyl-ATP pyrophosphohydrolase/phosphoribosyl-AMP cyclohydrolase (AbHisIE) (Acinetobacter baumannii, UniProt V5VH18)
T1 construct: gene hisIE; full-length AbHisIE (A. baumannii strain ATCC17978), recombinant
T1 sequence (V5VH18 1-257): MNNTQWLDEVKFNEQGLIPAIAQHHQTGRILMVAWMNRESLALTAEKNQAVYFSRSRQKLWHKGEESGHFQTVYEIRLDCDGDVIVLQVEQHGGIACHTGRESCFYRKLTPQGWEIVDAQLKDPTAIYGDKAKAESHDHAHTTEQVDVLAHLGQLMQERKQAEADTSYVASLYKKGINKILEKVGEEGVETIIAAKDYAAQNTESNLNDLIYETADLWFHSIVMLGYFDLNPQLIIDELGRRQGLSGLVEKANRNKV


Columns and labels:
[1] = molecular target: T1, phosphoribosyl-ATP pyrophosphohydrolase/phosphoribosyl-AMP cyclohydrolase (AbHisIE); test: initial rates of ProFAR formation from PRATP at […] nm, dose-response with purified AbHisIE; format: biochemical
[2] = substrate: N=c1c2ncn([C@@H]3O[C@H](COP(=O)(O)O)[C@@H](O)[C@H]3O)c2ncn1[C@@H]1O[C@H](COP(=O)(O)O)[C@@H](O)[C@H]1O; test: purified protein; format: biochemical, Acinetobacter baumannii; conditions: Zn2+ (HisI-like domain) cyclohydrolase active site in the N-terminal HisI-like domain
[3] = substrate: N=c1c2ncn([C@@H]3O[C@H](COP(=O)(O)OP(=O)(O)OP(=O)(O)O)[C@@H](O)[C@H]3O)c2ncn1[C@@H]1O[C@H](COP(=O)(O)O)[C@@H](O)[C@H]1O; test: purified protein; format: biochemical, Acinetobacter baumannii; conditions: Mg2+ (HisE-like domain); Zn2+ (HisI-like domain) pyrophosphohydrolase active site in the C-terminal HisE-like domain

IC50 [1] [µM] | Molecule | Km [2] [µM] | Km [3] [µM] | kcat [3] [s⁻¹]
52 ± 4 | N=c1c2ncn([C@@H]3O[C@H](COP(=O)(O)OP(=O)(O)O)[C@@H](O)[C@H]3O)c2ncn1[C@@H]1O[C@H](COP(=O)(O)O)[C@@H](O)[C@H]1O [PRADP] |  |  | 
 | phosphoribosyl-ATP pyrophosphohydrolase/phosphoribosyl-AMP cyclohydrolase (AbHisIE) (Acinetobacter baumannii) (protein, full-length AbHisIE (A. baumannii strain ATCC17978), recombinant) MNNTQWLDEVKFNEQGLIPAIAQHHQTGRILMVAWMNRESLALTAEKNQAVYFSRSRQKLWHKGEESGHFQTVYEIRLDCDGDVIVLQVEQHGGIACHTGRESCFYRKLTPQGWEIVDAQLKDPTAIYGDKAKAESHDHAHTTEQVDVLAHLGQLMQERKQAEADTSYVASLYKKGINKILEKVGEEGVETIIAAKDYAAQNTESNLNDLIYETADLWFHSIVMLGYFDLNPQLIIDELGRRQGLSGLVEKANRNKV | 11 | 4.0 ± 0.7 | 5.6 ± 0.3
